Experimental data as given in the RNAGym collection of RNA variant scans (doi:10.1101/gr.219683.116).

B1: mRNA-splicing (parent)
chain: AGUUGCUGCUGGGAGCUCCAGCACAGUGAAAUGGACAGAAGGGCAGAGCAA

Variants of: B1
Assay: exon inclusion enrichment index; higher = more inclusion; WT1 exon 5 minigene, HEK293

| Variant | exon inclusion enrichment index |
| --- | --- |
| U3C C6A U7A C9A U10A | 1.1 |
| G5C C6U G8C C9U U10C G48A | 2.76 |
| G5A U7C G8A U10C G41U G42A | 0.909 |
| U3G U4A C6A U7A C9A U10A | 0.213 |
| C6A U7A C9A U10A C19G A20U | 0.62 |
| G5A C6G U7G C9A G38A A39C | 0.0024 |
| C6A U7C C9A U10C G43A C44G | 5.09 |
| U4G G5U G8U C9U | 0.267 |
| A40C | 0.557 |
| G5A U7C G8A U10C G43U C44G | 0.5 |
| G5C C6G U7C U10C C22U A23G | 3.6 |
| G5C C6G U7C U10C G46U A47G | 2.91 |
| G5C C6U G8C C9U U10C G43A C44U | 2 |
| C6A U7A C9A U10A A29G | 1.06 |
| U3C U4C G5A C6U U7A G8U C9A | 0.481 |
| U4G G5A C6A U7A C9A U10A | 0.315 |
| G5C C6A U7C G8A U10A A40U | 0.0713 |
| G5C C6A U7C G8A C9A U10G | 0.428 |
| G5A C6G U7G C9A C19U A20U | 0.00173 |
| G5A C6A U7G G8U C9A | 0.0264 |
| C6A U7C C9A U10C G38A A39U | 0.332 |

| Variant | exon inclusion enrichment index |
| --- | --- |
| C6A U7A C9A U10A C18G C19U | 0.076 |
| C6A U7C C9A U10C G13C A14U | 2.57 |
| G5A C6G U7G C9A G12A | 0.000801 |
| G5C C6A U7C G8A C9G | 0.446 |
| C6A U7C G8U U10C | 2.98 |
| G5A C6G U7G C9A G28A A29G | 0.000786 |
| C6A U7A C9A U10A G42A G43U | 2.73 |
| C18U C19U | 0.0838 |
| C6A U7A C9A U10A A30C A31G | 1.45 |
| G2C C6A U7A C9A U10A | 0.788 |
| G5U G8U C9U A30G A31G | 0.0186 |
| C6A U7A C9A U10A A20C G21A | 0.223 |
| G5C C6G U7C U10C A14U G15U | 1.46 |
| G5A C6G U7G C9A U17A C18G | 0.00136 |
| G5A C6U U7A G8U C9A C24U A25G | 0.165 |
| C6A U7C C9A | 1.99 |
| G5A C6U U7A G8U C9A A39C A40C | 0.204 |
| G5C C6A U7C G8A U10A G33U G34U | 0.00723 |
| G5C C6G U7C U10C G33A | 0.609 |
| G5U G8U C9U A25G G26A | 0.765 |
| G5C C6A U7C G8A U10A A20U | 0.199 |

| Variant | exon inclusion enrichment index |
| --- | --- |
| G5C C6G U7C U10C A14G G15C | 1.64 |
| G5A U7C G8A U10C G34C A35G | 1.69 |
| G5C C6U G8C C9U U10A G11A | 0.661 |
| C6A U7A C9A U10A G33U G34A | 0.0617 |
| C6A U7A C9A U10A G33C G34A | 0.421 |
| G5A C6U U7A G8U C9A C19A A20C | 0.0154 |
| G5A U7C G8A U10C G13U A14G | 0.535 |
| C6A U7A C9A U10A G42U | 0.988 |
| G5A C6G U7G C9A G42U | 0.00622 |
| G5A C6G U7G C9A G42C | 0.0041 |
| G5U G8U C9U A45G G46U | 0.0933 |
| A39G | 0.074 |
| G5C C6A U7C G8A U10A G15C | 0.0588 |
| G5C C6G U7C U10C C44U A45G | 2.53 |
| G5C C6G U7C U10C A14C G15U | 1.33 |
| G5U G8U C9U C16G U17C | 0.0319 |
| C6A U7A C9A U10A G13A A14U | 1.82 |
| G5C C6G U7C G8A C9U U10C | 3.11 |
| G5C C6U G8C C9U U10C C18U | 1.62 |
| G2A G5A C6G U7G C9A | 0.0189 |
| G5U G8U C9U A23C | 0.1 |

| Variant | exon inclusion enrichment index |
| --- | --- |
| G5A C6G U7G C9A G13A A14C | 0.0219 |
| G5A C6U U7A G8U C9A G42C G43C | 0.451 |
| G5C C6G U7C U10C G34U | 1.32 |
| G5C C6U G8C C9U U10C C22A A23G | 2.07 |
| G5C C6G U7C U10C G28U | 1.05 |
| G5C C6A U7C G8A U10A C36G A37G | 0.00352 |
| G5C C6U G8C C9U U10C G43C C44G | 4.6 |
| U3G U4C C6A U7A C9A U10A | 1.04 |
| C6A U7C C9A U10C C19A A20C | 2.73 |
| G5A U7C G8A U10C C24A A25C | 3.6 |
| G5U G8U C9U A40U G41A | 0.00332 |
| G5U G8U C9U A35U C36G | 0.0125 |
| G5C C6G U7C U10C U32G | 0.601 |
| C6A U7C C9A U10C G15U C16U | 3.12 |
| G5A U7C G8A U10C G46U A47U | 2.48 |
| A23G C24G | 1.64 |
| G5C C6U G8C C9U U10C G26U U27C | 3.41 |
| G5A C6U U7A G8U C9A G28C A29C | 0.0748 |
| G5A C6U U7A G8U C9A G28C A29G | 0.178 |
| G5A C6U U7A G8U C9A G28C A29U | 0.0282 |
